Data on two molecules can be found in PMC4208696 (Biophysical chemistry, 2014).

What all share (test): fluorescence polarisation
Background: Fluorescence polarisation rises when a labelled molecule tumbles more slowly, as on binding a larger partner.

Experiment [1] has as its target T1, CaM N-domain fragment, residues 1 to 80 (CaM_(1–80)) (mammalian (no species named), UniProt P0DP23 2-81).
Experiment [2] concerns the target T2, CaM C-domain fragment, residues 76 to 148 (CaM_(76–148)) (mammalian (no species named), UniProt P0DP23 77-149).
Experiment [3] concerns the target T3, full-length mammalian calmodulin (CaM_(1–148)) (mammalian (no species named), UniProt P0DP23 1-149).
Experiment [4] addresses T1, CaM N-domain fragment, residues 1 to 80 …. The source holds these as a separate data set.
The target of experiment [5] is T2, CaM C-domain fragment, residues 76 to …. The source holds these as a separate data set.
Experiment [6] concerns the target T3, full-length mammalian calmodulin …. The source holds these as a separate data set.

Where two headings read alike, the source gives them in different places. Some results are limits rather than exact numbers.

B1: Fl–hRyR1(1975–1999)p: hRyR1(1975–1999)p with a 5,6-carboxyfluorescein moiety at the N-terminus (peptide)
peptide: {5,6‑carboxyfluorescein}-SRYGLLIKAFSMTAAETARRTREFR-NH2
One may read the Kd as the free concentration of one partner at which half of the binding sites on the other are occupied at equilibrium, for simple one-to-one binding. Regarding B1, the Kd in experiment [1] is around 7 mM; in experiment [2] it was around 650 µM; in experiment [3], around 850 µM; in experiment [4] it was 12.5 ± 1.95 µM; in experiment [5] it was 9.21 ± 0.82 µM; in experiment [6], 660 ± 10 nM.

B2: Fl–hRyR1(3614–3643)p: hRyR1(3614–3643)p with a 5,6-carboxyfluorescein moiety at the N-terminus (peptide)
peptide: {5,6‑carboxyfluorescein}-KSKKAVWHKLLSKQRRRAVVACFRMTPLYN-NH2
Take B2: the Kd is around 1.5 mM in experiment [1]; 24.9 ± 4.27 µM in experiment [2]; 6.79 ± 3.05 µM in experiment [3]; 2.5 ± 0.83 µM in experiment [4]; at most 0.01 µM in experiment [5]; at most 1 nM in experiment [6].
